Assay: Determination of q by luminescence lifetime measurements
Assay type: physicochemical
Conditions: emission 544 nm, excitation 229 nm, 25 scans averaged, monoexponential fit

Row | Substance | kD2O (luminescence decay rate in D2O) | kH2O (luminescence decay rate in H2O)
1 | Tb(III)-DOTA-Arg8 [compound 10] | 0.315 ms^−1 | 0.566 ms^−1
2 | Tb(III)-DOTA-SS-Arg8 [compound 12] | 0.397 ms^−1 | 0.644 ms^−1
3 | Tb(III)-DTPA-Arg8 [compound 11] | 0.331 ms^−1 | 0.635 ms^−1
4 | Tb(III)-DTPA-SS-Arg8 [compound 13] | 0.390 ms^−1 | 0.671 ms^−1

Reference: PMC2650427 (Bioconjugate chemistry, 2008)
